Values joined by “and” are separate entries in the source; they are usually repeats but may differ in a detail not shown here. Identical values can stand only once.
Biological target: histidine-tagged HIV-1 integrase protein (IN) (HIV-1) (UniProt P04585)
Assay: cell-based or functional assay

| Substance | inhibition of IN enzymatic activity |
| --- | --- |
| Rev 13-23 peptide (Rev-derived peptide, as used in the IN activity assay) (from UniProt P04618 13-23) | 60 % inhibition and 70 % inhibition |
| Rev 53-67 peptide (Rev-derived peptide, as used in the IN activity assay) (from UniProt P04618 53-67) | 60 % inhibition and 70 % inhibition |

Reference: patent publication US20160032263A1
